Results as given in the supplement of paper PMC11865577.

Legend:
Test in all cases: pull-down binding Z-score (relative to library population); higher = stronger binding
Conditions in all cases: RNA library: Library-2
TO-N3 (biotin conjugate) = test system: TO-N3 (biotin conjugate)
Outline: (§1)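 Biotin-conjugated small molecule (100 pmol) on streptavidin beads was incubated with 1 μg of heat-folded Cy5- or Cy3-end-labelled RNA library in phosphate/NaCl/KCl buffer at 25 °C for 60 min. Following three washes, RNA was eluted with hot SDS and hybridised at 55.5 °C for 20 h to a DNA barcode microarray. The binding value is a Z-score computed from the library mean and standard deviation, after subtraction of beads without compound and averaging of barcoded replicate probes with the highest and lowest excluded.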

[1] = test system: TO-3-N3-2 (biotin conjugate)
Outline: as §1

[2] = test system: TO-N3-2 (biotin conjugate)
Outline: as §1

[3] = test system: TO-3-N3 (biotin conjugate)
Outline: as §1

Sequence	pull-down binding Z-score (TO-N3 (biotin conjugate))	pull-down binding Z-score [1]	pull-down binding Z-score [2]	pull-down binding Z-score [3]
CUUAGUUUUAAG [DMSMaPseq_invitro_SARS-CoV-2_Motif_263]	-1.02	-0.268	-1.26	-0.781
CUUAUGUUGGUUGCCAUAACAAGUGUGCCUAUUGGGUUCCACGUGCUAGCGCUAACAUAGG	-1.11	-0.751	-0.75	-1.06
CUUCACAUAUGUAUUGUUCUUUUUACCCUCCAGAUGAGGAUGAAGAAGAAGGUGAUUGUGAAG	-0.606	-0.0402	-1.19	-0.494
CUUCAUUAAAAGAAUUACUGCAAAAUGGUAUGAAUGGACGUACCAUAUUGGGUAGUGCUUUAUUAGAAG	-0.621	-0.0236	-0.219	-0.675
CUUCCGAGUCAUAGGAAACUAUGACAUACAGAUCAACAGGGGCUCGCUUGAGCCCCCCAGCCAGUCGGAGG [mMTR1]	-1.09	-0.458	-0.704	-0.97
CUUCUGCUGCUCUUCAACCUGAAGAAGAGCAAGAAGAAG	-0.368	-0.22	-0.79	-0.349
CUUCUUGAAAUACUCCAAAAAGAGAAAGUCAACAUCAAUAUUGUUGGUGACUUUAAACUUAAUGAAG	-0.0282	-0.0464	-0.596	0.115
CUUCUUGCAUGUGACUUAUGUCCCUGCACAAGAAAAG [SHAPE_invitro_SARS-CoV-2_Motif_449]	-0.309	-0.257	-0.177	-0.329
CUUGAACAAUGGAACCUAGUAAUAGGUUUCCUAUUCCUUACAUGGAUUUGUCUUCUACAAUUUGCCUAUGCCAACAGG	-0.466	-0.181	-0.374	-0.5
CUUGAACAAUGGAACCUAGUAAUAGGUUUCCUAUUCCUUACAUGGAUUUGUCUUCUACAAUUUGCCUAUGCCAACAGGAAUAGGUUUUUGUAUAUAAUUAAG	-1.12	-0.369	-1.14	-0.828
CUUGAUGAUUUUGUUGAAAUAAUAAAAUCCCAAG	-0.636	-0.266	-0.743	-0.466
CUUGGAAAACUUCAAG	-0.471	-0.265	-0.863	-0.101
CUUUACCAACCACCACAAACCUCUAUCACCUCAGCUGUUUUGCAGAGUGGUUUUAGAAAAAUGGCAUUCCCAUCUGGUAAAG	-0.0807	0.13	-0.0806	-0.0485
CUUUAGUAAUUACCUAAAGAGACGUGUAGUCUUUAAUGGUGUUUCCUUUAG	-1.09	-0.575	-1.17	-0.924
CUUUAUUAGAAG [DMSMaPseq_invitro_SARS-CoV-2_Motif_195]	-0.39	-0.21	-0.806	-0.165
CUUUGAUAAAGCUGGUCAAAAGACUUAUGAAAG	-0.947	-0.4	-0.816	-0.814
CUUUGUAUUGCAUAGACGGUGCUUUACUUACAAAGUCCUCAGAAUACAAAG	-1.28	-0.719	-1.1	-0.811
CUUUUAUGUCUAUGCUAAUGGAGGUAAAGG [SHAPE_invivo_SARS-CoV-2_Motif_154]	-0.68	-0.487	-0.771	-0.524
CUUUUGAAGAAG [SHAPE_invivo_SARS-CoV-2_Motif_195]	-1.16	-0.577	-1.33	-0.686
GAAAAGAACAAUCAAGGGUACACACCACUGGUUGUUACUCACAAUUUUGACUUCACUUUUAGUUUUAGUCCAGAGUACUCAAUGGUCUUUGUUCUUUUU	-0.121	-0.0313	0.0117	-0.824
GAAAAUGACUCUAAAGAGGGUUUUUUC [SHAPE_invitro_SARS-CoV-2_Motif_382]	-0.18	-0.323	-0.375	-0.0158
GAAAUACUUGUCACAUACAAUUGUUGUGAUGAUGAUUAUUUC	-1.39	-0.399	-1.14	-1.15

Sequence	pull-down binding Z-score (TO-N3 (biotin conjugate))	pull-down binding Z-score [1]	pull-down binding Z-score [2]	pull-down binding Z-score [3]
GAAAUUUGACACCUUCAAUGGGGAAUGUCCAAAUUUU [SHAPE_invitro_SARS-CoV-2_Motif_22]	-0.92	-0.434	-0.988	-0.726
GAACCUUGCUCUUCUGGAACAUACGAGGGCAAUUC	0.239	-0.0628	-0.153	0.401
GAACUCUACUAAUGUCACUAUUGCAACCUACUGUACUGGUUCUAUACCUUGUAGUGUUUGUCUUAGUGGUUUAGAUUC [DMSMaPseq_invitro_SARS-CoV-2_Motif_135]	-0.105	-0.164	-0.471	0.03
GAAGAGGGAGCAAUUGUUGGCGAAAUUUCACCAUUGCCUUCUCUUC [IAV_invivo_NS1_NEP_8_Motif_10+IAV_invivo_NS1_NEP_8_Motif_10]	0.0993	0.262	-0.213	-0.045
GAAGGCUAUUUGAACUCUACUAAUGUCACUAUUGCAACCUACUGUACUGGUUCUAUACCUUGUAGUGUUUGUCUUAGUGGUUUAGAUUCUUU	-0.505	-0.458	-0.467	-0.541
GAAGGUCUUAAUGACAACCUUC [SHAPE_invitro_SARS-CoV-2_Motif_33]	-1.28	-0.502	-1.39	-0.78
GAAGUCACACCUUC [SHAPE_invitro_SARS-CoV-2_Motif_534]	-0.137	-0.725	-0.517	0.0219
GAAGUUACAACAACUCUGGAAGAAACUAAGUUCCUCACAGAAAACUUGUUACUUU [DMSMaPseq_invitro_SARS-CoV-2_Motif_72]	-0.304	-0.321	0.97	-0.508
GAAUGCGUCAUCAUCUGAAGCAUUU	-1.1	-0.405	-0.61	-0.994
GAAUGGAGAACGCAGUGGGGCGCGAUCAAAACAACGUCGGCCCCAAGGUUUACCCAAUAAUACUGCGUCUUGGUUC	0.452	0.382	0.849	0.148
GAAUUUACACCUUUUGAUGUUGUUAGACAAUGCUCAGGUGUUACUUUC	0.0292	-0.394	-0.632	0.167
GACAAUGUCUUAUCUACUUUUAUUUCAGCAGCUCGGCAAGGGUUUGUUGAUUCAGAUGUAGAAACUAAAGAUGUUGUU	-0.599	-0.111	-0.776	-0.56
GACAGCAGAUAUAGUUGUC	0.331	0.368	-0.0659	0.607
GACAGUGGUUGCCUACGGGUACGCUGCUUGUC	0.666	-0.021	0.01	0.731
GACAUCACUUUCUUAAAGAAAGAUGCUCCAUAUAUAGUGGGUGAUGUU [DMSMaPseq_invitro_SARS-CoV-2_Multi_15_ComplexLevel_1]	-0.173	-0.0858	-0.466	-0.0756
GACAUGUUCCUCGGAACUUGUC	-1.35	-0.631	-0.965	-0.926
GACAUUUUAUCUUACUAAUGAUGUUUCUUUUUUAGCACAUAUUCAGUGGAUGGUUAUGUU [DMSMaPseq_invitro_SARS-CoV-2_Motif_175]	0.455	0.317	0.0287	0.0838
GACCAGAAAUCAGCCCGAAUGGUU [IAV_invivo_PB1_2_Motif_17+IAV_invivo_PB1_2_Motif_17]	-0.464	-0.175	-0.162	-0.477
GACCCUAAGACUAAAAAUGUUACAAAAGAAAAUGACUCUAAAGAGGGUUUUUUCACUUACAUUUGUGGGUU	-0.227	0.101	-0.519	-0.131
GACCCUGUGGGUU [SHAPE_invitro_SARS-CoV-2_Motif_242]	0.574	-0.329	-0.805	0.817
GACGACUACUAGCGUGCCUUUGUAAGCACAAGCUGAUGAGUACGAACUUAUGUACUCAUUCGUU [SHAPE_invivo_SARS-CoV-2_Multi_65_ComplexLevel_1]	0.417	0.0759	0.764	0.114
GACUACUAGCGUGCCUUUGUAAGCACAAGCUGAUGAGUACGAACUUAUGUACUCAUUCGUUUCGGAAGAGACAGGUACGUUAAUAGUU [SHAPE_invitro_SARS-CoV-2_Multi_71_ComplexLevel_1]	0.649	0.392	0.672	0.389

Sequence	pull-down binding Z-score (TO-N3 (biotin conjugate))	pull-down binding Z-score [1]	pull-down binding Z-score [2]	pull-down binding Z-score [3]
GACUCAUUCAAGGAGGAGUU [SHAPE_invivo_SARS-CoV-2_Motif_469]	0.111	-0.149	-0.297	0.25
GACUCUGAGCCAGUGCUCAAAGGAGUC	-0.677	-0.434	-0.0814	-0.523
GACUUAUGAAAACUAUAGGUC	-0.299	0.00298	-0.341	-0.388
GACUUCAGUAACUCAGGUUCUGAUGUU	-0.829	-0.426	-0.704	-0.751
GACUUGCUUUAGCACUCAAUUUGCUUUUGCUUGUC	-0.0156	-0.00573	-1.08	0.241
GAGACAUUUAAACUGUCUU	-0.91	-0.286	-1.06	-0.469
GAGACGGUCGGGUCCAGAUAUUCGUAUCUGUCGAGUAGAGUGUGGGCUCC [Broccoli]	1.12	0.495	1.99	0.184
GAGAGUGUUCAGACAUUCUU [SHAPE_invivo_SARS-CoV-2_Motif_44]	0.718	-0.0995	-0.51	0.913
GAGCUGCCCUGUCGGUGAAGCUC [IAV_invivo_NA_6_Motif_6+IAV_invivo_NA_6_Motif_6]	0.217	-0.0787	0.384	0.171
GAGGCACUUAAAAUGACCAUGGCCUC [IAV_invivo_NS1_NEP_8_Motif_6+IAV_invivo_NS1_NEP_8_Motif_6]	0.233	0.446	-0.305	0.555
GAGGCUAUGUACACACCGCAUACAGUCUUACAGGCUGUUGGGGCUUGUGUUCUUUGCAAUUC [SHAPE_invitro_SARS-CoV-2_Motif_296]	0.112	-0.158	0.485	-0.256
GAGGGGUGUAUACUGCUGCCGUGAACAUGAGCAUGAAAUUGCUUGGUACACGGAACGUUCUGAAAAGAGCUAUGAAUUGCAGACACCUUUU	-0.034	-0.11	0.475	-0.406
GAGGUAAGUACGAUACUUACCUG [U1snRNP5ss-7]	-1.17	-0.544	-0.876	-0.856
GAGGUAAGUAUGAUACUUACCUG [U1snRNP5ss-8]	-0.957	-0.377	-1.02	-0.664
GAGGUGAGCAGGAUACUUACCUG [U1snRNP5ss-16]	0.0508	-0.182	0.602	-0.342
GAGGUGAUGCAGAUACUUACCUG [U1snRNP5ss-20]	0.68	0.169	0.343	0.762
GAGUAUUAGGUUUGAAAACCCUUGCUACUC [SHAPE_invivo_SARS-CoV-2_Motif_136]	-0.966	-0.359	-0.731	-0.732
GAGUCCUCAUCGGAGGACUU [IAV_invivo_NS1_NEP_8_Motif_11+IAV_invivo_NS1_NEP_8_Motif_11]	-0.729	-0.368	-1.36	-0.347
GAGUGCUAUCUAACCUUAACUUGCCUGGUUGUGAUGGUGGCAGUUUGUAUGUAAAUAAACAUGCAUUCCACACACCAGCUUUUGAUAAAAGUGCUU [DMSMaPseq_invitro_SARS-CoV-2_Motif_343]	-0.637	-0.487	-0.238	-0.749
GAGUUACACAGAAUGUUCUCUAUGAGAACCAAAAAUUGAUUGCCAACCAAUUUAAUAGUGCUAUUGGCAAAAUUCAAGACUC	-0.581	0.305	-0.226	-0.57
GAGUUUUUAGUGCAGUUGGUAACAUCUGUUACACACCAUCAAAACUU	0.0323	-0.12	0.396	-0.305
